Experimental data: US9394339B2, “Stabilized formulations of peptides and proteins protecting against non-enzymatic degradation” (Lyotropic Therapeutics, Inc., priority 2007, dated 2016)
“Also recorded” adds a separate entry of the source. Like-named read-outs stand apart in the source and are kept apart here.

Experiments:
[1] = cited from earlier work; for T1/2 (half-life, deamidation): buffer
[2] = system: decapeptide RCNSGRFNGG-NH2; assay: Decapeptide accelerated stability test, potency of intact peptide by HPLC; type: physicochemical
Experimental: To begin with, a decapeptide was synthesized by request at the Protein Facility of the Iowa State University Office of Biotechnology, using standard peptide synthesis methodology.
Samples containing this decapeptide were prepared under eight different conditions at two different pH values, pH 7 and 4. […] The preparation of these samples is now described. The ratios indicated are molar ratios of organic anion to decapeptide.
Into a sterile 15 mL plastic centrifuge tube (Corning Incorporated, Corning, N.Y.) was placed 0.0021 g decapeptide (Iowa State University, Ames, Iowa) and 7.0 g sterile water (Spectrum Chemicals Mfg. Corp., Gardena, Calif.). The pH was adjusted using 1.0N HCl (Spectrum Chemicals Mfg. Corp., Gardena, Calif.) to a pH of 4. Into a new 15 mL plastic centrifuge tube was placed 3.5 mL of a pH 4 solution. The pH was adjusted using only the necessary amount of 1.0N NaOH (Spectrum Chemicals Mfg. Corp., Gardena, Calif.) to a final pH of 7.
(anion:asparaginyl molar ratio). […] Into a new 15 mL plastic centrifuge tube was placed 3.5 mL of a pH 4 solution. The pH was adjusted using only the necessary amount of 1.0N NaOH to a final pH of 7.
(§1) Into a new 15 mL plastic centrifuge tube was placed 3.5 mL of a pH 4 solution. The pH was adjusted using only the necessary amount of 1.0N NaOH to a final pH of 7.
as §1, §1
Into a sterile 1.5 mL microcentrifuge tube was placed a 0.5 g portion of each sample condition and were placed at −18° C. This was the initial sample. The remaining pH 4 samples were placed at 65° C. until completion of the experiment. The remaining pH 7 samples were placed at 40° C. until completion of the experiment. […] This was the day 1 sample. The frozen initial and day 1 samples were thawed to room temperature, and assayed using HPLC.
The samples at the various timepoints were then analyzed with HPLC using the following conditions.
System: Schimadzu SCL-10A VP with diode array detector
Column: Phenomenex C18 Luna 5 um, 250×4.6 mm
Mobile Phase: Isocratic 90% (0.1%) TFA in water, 10% (0.08%) TFA in acetonitrile
The potency (mg/mL of intact peptide) was determined by integrating under this peak (performed by the instrument), and normalizing according to a standard run of the decapeptide.
The sample stressing and HPLC were applied as above.
(anion:asparaginyl ratio). Into a sterile 15 mL plastic centrifuge tube was placed 0.0021 g decapeptide, 0.0029 g N-acetyl-D-tryptophan (MP Biomedicals, Solon, Ohio) and 7.0 g sterile water. The pH was adjusted using 1.0N HCl to a pH of 4. Into a new 15 mL plastic centrifuge tube was placed 3.5 mL of a pH 4 solution. The pH was adjusted using only the necessary amount of 1.0N NaOH to a final pH of 7. Since the molar ratio of acetyltryptophan to decapeptide is 6:1, and each decapeptide has two asparaginyl residues, the molar ratio of NAT to asparagine is 3:1.
The pH was adjusted using only the necessary amount of 1.0N NaOH to a final pH of 7.

[3] = accepted approximate value, dilute aqueous solution; cited from earlier work
[4] = aqueous solution, pH 7.4, 37° C., Tris-HCl buffer
[5] = pH 7, 24 hours at 40° C., molar ratio anion:Asn 3

NAD(P)H dehydrogenase (1QBG): human protein
T1/10 (time to 10% degradation by deamidation) [1, 4]: 53 days

CC(=O)N[C@H](Cc1c[nH]c2ccccc12)C(=O)O [N-acetyltryptophanate, N-acetyl-D-tryptophan]
potency remaining ([2]; pH 4, stressed at 65° C., anion:Asn 3:1): 74%
Relative potency [2, 5]: 1.028
Relative potency ([2]; pH 7, 24 hours at 40° C., molar ratio anion:Asn 3, listed as N-acetyltryptophan): completely retained; also recorded: no detectable degradation
pKa (first listed) [3]: 3.37

GTP-binding protein (1DOA): human protein
T1/10 (time to 10% degradation by deamidation) [1, 4]: 6.8 days

-Chymotrypsinogen (1CGI): human protein
T1/10 (time to 10% degradation by deamidation) [1, 4]: 2.4 days

Transforming growth factor-two (1KLA): human protein
T1/10 (time to 10% degradation by deamidation) [1, 4]: 70 days

Interleukin-6 (1IL6): human protein
T1/10 (time to 10% degradation by deamidation) [1, 4]: 8.5 days

C[C@H](CCC(=O)NCC(=O)O)[C@H]1CC[C@H]2[C@@H]3[C@H](O)C[C@@H]4C[C@H](O)CC[C@]4(C)[C@H]3C[C@H](O)[C@]12C [glycocholic]
pKa (first listed) [3]: 3.6

Growth hormone (1HGU): human protein
T1/10 (time to 10% degradation by deamidation) [1, 4]: 7.8 days

Creatine kinase ( 1QK1): human protein
T1/2 (half-life, deamidation) ([1]; pH 7.4): 84 days
T1/10 (time to 10% degradation by deamidation) ([1]; pH 7.4): 13 days

Malic enzyme (1EFK): human protein
T1/2 (half-life, deamidation) ([1]; pH 7.4): 140 days
T1/10 (time to 10% degradation by deamidation) ([1]; pH 7.4): 21 days

Growth hormone receptor (1A22): human protein
T1/10 (time to 10% degradation by deamidation) [1, 4]: 0.36 days

Intestinal fatty acid binding protein (3IFB): human protein
T1/2 (half-life, deamidation) ([1]; pH 7.4): 7.6 days
T1/10 (time to 10% degradation by deamidation) ([1]; pH 7.4): 1.2 days

Carbonic anhydrase I (1HCB): human protein
T1/10 (time to 10% degradation by deamidation) [1, 4]: 6.8 days

Interleukin-4 (2CYK): human protein
T1/10 (time to 10% degradation by deamidation) [1, 4]: 41 days

Stem cell factor (1EXZ): human protein
T1/10 (time to 10% degradation by deamidation) [1, 4]: 27 days

Cl [Hydrochloric, hydrochloric acid]
potency remaining ([2]; pH 7, 24 hours at 40° C., HCl control, no organic anion, listed as HCl): less than 7%
potency remaining ([2]; pH 7, 24 hours at 40° C., HCl control, no organic anion, listed as hydrochloric acid control): under 7%

Triose phosphate isomerase (1HTI): human protein
T1/10 (time to 10% degradation by deamidation) [1, 4]: 7.9 days

CC(O)C(=O)O (stereo not shown) [lactic, lactic acid]
pKa (first listed) [3]: 3.95

Insulin (2HIU): human protein
T1/2 (half-life, deamidation) ([1]; pH 7.4): 260 days
T1/10 (time to 10% degradation by deamidation) ([1]; pH 7.4): 40 days

Annexin V (1ANX): human protein
T1/10 (time to 10% degradation by deamidation) [1, 4]: 33 days

Proinsulin (1EFE): human protein
T1/10 (time to 10% degradation by deamidation) [1, 4]: 17 days

Lysophospholipase (1LCL): human protein
T1/10 (time to 10% degradation by deamidation) [1, 4]: 2.4 days

Apoptosis regulator bax (1F16): human protein
T1/10 (time to 10% degradation by deamidation) [1, 4]: 26 days

Homeobox protein PAX-6 (6PAX): human protein
T1/10 (time to 10% degradation by deamidation) [1, 4]: 5.9 days

Cyclophilin A (1AWQ): human protein
T1/10 (time to 10% degradation by deamidation) [1, 4]: 1.3 days

Fibroblast growth factor (2AFG): human protein
T1/10 (time to 10% degradation by deamidation) [1, 4]: 3.2 days

Interleukin-1 (2I1B): human protein
T1/10 (time to 10% degradation by deamidation) [1, 4]: 43 days

Angiogenin (1A4Y): human protein
T1/10 (time to 10% degradation by deamidation) [1, 4]: 3.2 days

O=C1NS(=O)(=O)c2ccccc21 [Saccharin, 2,3-dihydro-3-oxobenzisosulfonazole]
Relative potency ([2]; pH 4, 24 hours at 65° C., anion:Asn 10:1): 87%
Relative potency ([2]; pH 7, 24 hours at 40° C., molar ratio anion:Asn 1): 0.080
Relative potency ([2]; pH 7, 24 hours at 40° C., molar ratio anion:Asn 1, listed as saccharin): much less enhancement
Relative potency [2, 5]: 0.008
Relative potency ([2]; pH 7, 24 hours at 40° C., molar ratio anion:Asn 10): 0.523
Relative potency ([2]; pH 7, 24 hours at 40° C., molar ratio anion:Asn 10, listed as saccharin): enhanced stability

Argininosuccinate lyase (1AOS): human protein
T1/10 (time to 10% degradation by deamidation) [1, 4]: 13 days

1-Antitrypsin (1QLP): human protein
T1/10 (time to 10% degradation by deamidation) [1, 4]: 6.1 days

CCCCCCCC/C=C\CCCCCCCC(=O)O [oleic]
pKa (first listed) [3]: 4.5

C[C@H](CCC(=O)O)[C@H]1CC[C@H]2[C@@H]3CC[C@@H]4C[C@H](O)CC[C@]4(C)[C@H]3C[C@H](O)[C@]12C [deoxycholic, deoxycholic acid]
pKa (first listed) [3]: 5.7

D-Glyceraldehyde-3-phosphate dehydrogenase (3GPD): human protein
T1/2 (half-life, deamidation) ([1]; pH 7.4): 4.2 days
T1/10 (time to 10% degradation by deamidation) ([1]; pH 7.4): 0.64 days

Interleukin-10 (2ILK): human protein
T1/10 (time to 10% degradation by deamidation) [1, 4]: 3.8 days

Mitogen-activated protein kinase P38 (1WFC): human protein
T1/10 (time to 10% degradation by deamidation) [1, 4]: 17 days

Interleukin-8 (1IL8): human protein
T1/10 (time to 10% degradation by deamidation) [1, 4]: 14 days

N-acetylgalactosamine-4-sulfatase (1FSU): human protein
T1/10 (time to 10% degradation by deamidation) [1, 4]: 0.93 days

O=C(O)/C=C\C(=O)O [maleic]
pKa (first listed) [3]: 3.9

Platelet factor 4-HPF4 (1RHP): human protein
T1/10 (time to 10% degradation by deamidation) [1, 4]: 35 days

Peptidyl-prolyl cis-trans isomerase (1F8A): human protein
T1/10 (time to 10% degradation by deamidation) [1, 4]: 0.36 days
